# Source: patent US20260258115A1 (MAPP BIOPHARMACEUTICAL, published 2026)
# Changes are numbered by the printed parent chain.
# B1: ADI-24816 (antibody, V domains shown)
# VH: QVQLVQSGAEVKKPGASVKVSCKASGYTFTSYDINWVRQATGQGLEWMGWMNPNSGNTGYAQKFQGRVTMTRNTSISTAYMELSSLRSEDTAVYYCARGIPGYYYYGMDVWGQGTTVTVSS
# VL: not shown
# notes: full-length IgG
# B2: ADI-24822 (antibody, V domains shown)
# VH: QVQLVESGGGLVKPGGSLRLSCAASGFTFSSYSMNWVRQAPGKGLEWVSSISSSSSYIYYADSVKGRFTISRDNAKNSLYLQMNSLRAEDTAVYYCARDSGLGSRGDAFDIWGQGTMVTVSS
# VL: QSVLTQPPSVSGAPGQRVTISCTGSSSNIGAGYDVHWYQQLPGTAPKLLIYGNSNRPSGVPDRFSGSKSGTSASLAITGLQAEDEADYYCQSYDSSLSGYVFGTGTKVTVL
# notes: full-length IgG
# B3: ADI-24824 (antibody, V domains shown)
# VH: QVQLQESGPGLVKPSETLSLTCTVSGGSISSYYWSWIRQPPGKGLEWIGYIYYSGSTNYNPSLKSRVTISVDTSKNQFSLKLSSVTAADTAVYYCAISLYGDYRTDAFDIWGQGTTVTVSS
# VL: EIVLTQSPSSFSASTGDRVTITCRASQGISSYLAWYQQKPGKAPKLLIYAASTLQSGVPSRFSGSGSGTDFTLTISCLQSEDFATYYCQQYYSYPLFGGGTKVEIK
# B4: ADI-24830 (antibody, V domains shown)
# VH: QVQLVQSGAEVKKPGSSVKVSCKASGGTFSSYAISWVRQAPGQGLEWMGGIIPIFGTANYAQKFQGRVTITADESTSTAYMELSSLRSEDTAVYYCARGGSMVRGLGFDPWGQGTLVTVSS
# VL: not shown
# notes: full-length IgG
# B5: ADI-25503 (antibody, V domains shown)
# VH: EVQLLESGAEVKKPGSSVKVSCKASGGTFSSYAISWVRQAPGQGLEWMGGIIPIFGTANYAQKFQGRVTITADESTSTAYMELSSLRSEDTAVYYCARSRYSGSYYYYYGMDVWGQGTTVTVSS
# VL: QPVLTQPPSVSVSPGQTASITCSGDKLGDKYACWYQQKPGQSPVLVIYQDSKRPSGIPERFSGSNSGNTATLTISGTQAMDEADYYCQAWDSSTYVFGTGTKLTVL
# notes: full-length IgG
# B6: ADI-25514 (antibody, V domains shown)
# VH: B5 VH with L5V, E6Q
# VL: not shown
# notes: full-length IgG
# B7: ADI-24837 (antibody, V domains shown)
# VH: QVQLQESGPGLVKPSETLSLTCTVSGGSISSYYWSWIRQPPGKGLEWIGYIYYSGSTNYNPSLKSRVTISVDTSKNQFSLKLSSVTAADTAVYYCARAIYYYDSSGYYYVGDAFDIWGQGTTVTVSS
# VL: QSVLTQPPSVSAAPGQKVTISCSGSSSNIGNNYVSWYQQLPGTAPKLLIYENNKRPSGIPDRFSGSKSGTSATLGITGLQTGDEADYYCGTWDSSLSAGVFGGGTKLTVL
# B8: ADI-24843 (antibody, V domains shown)
# VH: EVQLVESGPGLVKPSQTLSLTCTVSGGSISSGDYYWSWIRQPPGKGLEWIGYIYYSGSTYYNPSLKSRVTISVDTSKNQFSLKLSSVTAADTAVYYCARESIVGAVDYWGQGTLVTVSS
# VL: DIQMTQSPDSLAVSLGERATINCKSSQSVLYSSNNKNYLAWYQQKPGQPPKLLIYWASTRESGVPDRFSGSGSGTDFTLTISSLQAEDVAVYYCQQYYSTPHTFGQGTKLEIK
# notes: full-length IgG; also called Ab 405
# B9: ADI-19468 (antibody, V domains shown)
# VH: EVQLVESGPGLVKPSETLSLTCTVSGGSISSSSYYWGWIRQPPGKGLEWIGSIYYSGSTYYNPSLKSRVTISVDTSKNQFSLKLSSVTAADTAVYYCARRDGYNYGWFDPWGQGTLVTVSS
# VL: NFMLTQPHSVSESPGKTVTISCTGSSGSIASNYVQWYQQRPGSAPTTVIYEDNQRPSGVPDRFSGSIDSSSNSASLTISGLKTEDEADYYCQSYDSSNVVFGGGTKVTVL
# notes: full-length IgG
# B10: ADI-19469 (antibody, V domains shown)
# VH: QVQLQESGPGLVKPSETLSLTCAVSGYSISSGYYWGWIRQPPGKGLEWIGSIYHSGSTYYNPSLKSRVTISVDTSKNQFSLKLSSVTAADTAVYYCARWTVMYYFDYWGQGTLVTVSS
# VL: EIVMTQSPATLSLSPGERATLSCRASQSVSSYLAWYQQKPGQAPRLLIYDASNRATGIPARFSGSGSGTDFTLTISSLEPEDFAVYYCQQRSNWPTFGGGTKLEIK
# notes: full-length IgG
# B11: ADI-19471 (antibody, V domains shown)
# VH: EVQLVESGGGLVQPGGSLRLSCSASGFTFSSYAMHWVRQAPGKGLEYVSAISSNGGSTYYADSVKGRFTISRDNSKNTLYLQMSSLRAEDTAVYYCVKADQGSSGWFPDYWGQGTLVTVSS
# VL: B9 VL with G24R, A44S, V99W, V107L
# notes: full-length IgG
# B12: ADI-19473 (antibody, V domains shown)
# VH: EVQLVESGAEVKKPGESLKISCKGSGYSFTSYWIGWVRQMPGKGLEWMGIIYPGDSDTRYSPSFQGQVTISADKSISTAYLQWSSLKASDTAMYYCARLIAAAGIDYWGQGTLVTVSS
# VL: NFMLTQPHSVSESPGKTVTISCTRSSGSIASNYVQWYQQRPGSSPTTVIYEDNQRPSGVPDRFSGSIDSSSNSASLTISGLKTEDEADYYCQSYDSSNIWVFGGGTKVTVL
# notes: full-length IgG
# B13: ADI-19474 (antibody, V domains shown)
# VH: QVQLVQSGAEVKKPGESLKISCKGSGYSFTSYWIGWVRQMPGKGLEWMGIIYPGDSDTRYSPSFQGQVTISADKSISTAYLQWSSLKASDTAMYYCARPYSGSYYAFDIWGQGTTVTVSS
# VL: B9 VL with G24R, A44S, V99Q, V107L
# notes: full-length IgG
# B14: ADI-19491 (antibody, V domains shown)
# VH: QVQLVQSGPTLVKPTQTLTLTCTFSGFSLSTSGVGVGWIRQPPGKALEWLALIYWDDDKRYSPSLKSRLTITKDTSKNQVVLTMTNMDPVDTATYYCAHRRATTVTTGYFDYWGQGTLVTVSS
# VL: QSVLTQPPSVSGAPGQRVTISCTGSSSNIGAGYDVHWYQQLPGTAPKLLIYGNSNRPSGVPDRFSGSKSGTSASLAITGLQAEDEADYYCQSYDSSLSGHYVFGTGTKVTVL
# notes: full-length IgG
# B15: ADI-19492 (antibody, V domains shown)
# VH: QVQLVQSGAEVKKPGESLKISCKGSGYRFTSYWIGWVRQMPGKGLEWMGIIYPGDSDTRYSPSFQGQVTISADKSISTAYLQWSSLKASDTAMYYCARSGSHYAFDLWGQGTMVTVSS
# VL: B12 VL with S28N, I49L, I99P, V108L
# notes: full-length IgG
# B16: ADI-19495 (antibody, V domains shown)
# VH: QVQLQESGPGLVKPSETLSLTCTVSGGSISSYYWSWIRQPPGKGLEWIGYIYTSGSTNYNPSLKSRVTISVDTSKNQFSLKLSSVTAADTAVYYCARVGSYYDLQHWGQGTLVTVSS
# VL: DIQLTQSPSSVSASVGDRVTITCRASQGISSWLAWYQQKPGKAPKLLIYAASSLQSGVPSRFSGSGSGTDFTLTISSLQPEDFATYYCQQANSFPLTFGGGTKVEIK
# B17: ADI-19496 (antibody, V domains shown)
# VH: EVQLVESGGGVVQPGGSLRLSCAASGFTFSSYGMHWVRQAPGKGLEWVAFIRYDGSNKYYADSVKGRFTISRDNSKSTLYLQMNSLRAEDTAVYYCAKDATFGYSSSWYNFDYWGQGTLVTVSS
# VL: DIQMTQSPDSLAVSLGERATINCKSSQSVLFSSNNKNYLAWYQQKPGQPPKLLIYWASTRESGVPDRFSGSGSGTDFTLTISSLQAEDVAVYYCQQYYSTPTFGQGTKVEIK
# notes: full-length IgG; also called Ab 198
# B18: ADI-19499 (antibody, V domains shown)
# VH: EVQLLESGPGLVKPSETLSLTCTVSGGSISSSSYYWGWIRQPPGKGLEWIGSIYYSGSTYYNPSLKSRVTISVDTSKNQFSLKLSSVTAADTAVYYCAVLLYSSSSFDYWGQGTLVTVSS
# VL: B12 VL with I99Q, W100A, K107Q, V108L
# notes: full-length IgG; also called Ab 201
# B19: ADI-19500 (antibody, V domains shown)
# VH: EVQLVESGGGLVQPGGSLRLSCAASGFTFSSYSMNWVRQAPGKGLEWVSYISSSSSTIYYADSVKGRFTISRDNAKNSLYLQMNSLRAEDTAVYYCARGNTVTTFLDYWGQGTLVTVSS
# VL: DIRLTQSPSSFSASTGDRVTITCRASQGISSYLAWYQQKPGKAPKLLIYAASTLQSGVPSRFSGSGSGTDFTLTISCLQSEDFATYYCQQYYSYPPLTFGGGTKVDIK
# notes: full-length IgG
# B20: ADI-19502 (antibody, V domains shown)
# VH: EVQLVESGGGVVQPGGSLRLSCAASGFTFSSDGMHWVRQAPGKGLEWVAFIQYDGTNKYYVDSVKGRFTISRDNSKNTLYLQMNSLRAEDTAVYYCAKDQGFRYSSSWYAFDIWGQGTMVTVSS
# VL: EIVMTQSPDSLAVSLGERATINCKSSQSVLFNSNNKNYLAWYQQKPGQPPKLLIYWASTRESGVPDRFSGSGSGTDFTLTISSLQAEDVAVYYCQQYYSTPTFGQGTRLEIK
# notes: full-length IgG
# B21: ADI-22758 (antibody, V domains shown)
# VH: QVQLVESGGGLVKPGGSLRLSCAASGFSISSYSMNWVRQAPGKGLEWVSSISGSSSYIYYGDSVKGRFTISRDNARNSLYLQMNSLRAEDTAVYYCARGDIAAAGTITYYFAHWGQGTLVTVSS
# VL: B2 VL with P42T, Y51F, S54N, Y100A, T104G, K107Q, V108L
# notes: full-length IgG
# B22: ADI-22765 (antibody, V domains shown)
# VH: EVQLVESGGGLVKPGGSLRLSCAASGFTFSSYSMNWVRQAPGKGLEWVSSISSSSSYIYYADSVKGRFTISRDNAKNSLYLQMNSLRAEDTAVYYCARDRGDGYNYDYWGQGTLVTVSS
# VL: QPVLTQPPSVSGAPGQRVTISCTGSSSNIGAGYDVHWYQQLPGTAPKLLIYGNSNRPSGVPDRFSGSKSGTSASLAITGLQAEDEADYYCQSYDSSLSVVFGGGTKVTVL
# notes: full-length IgG
# B23: ADI-22769 (antibody, V domains shown)
# VH: QVQLVQSGGGLVQPGGSLRLSCAASGFTFSDHYMDWVRQAPGKGLEWVGRTRNKANSYTTEYAASVKGRFTISRDDSKNSLYLQMNSLKTEDTAVYYCARVGYYYYYGMDVWGQGTTVTVSS
# VL: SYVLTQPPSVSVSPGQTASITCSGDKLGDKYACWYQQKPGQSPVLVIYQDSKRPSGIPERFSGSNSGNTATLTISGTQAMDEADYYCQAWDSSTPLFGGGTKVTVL
# notes: full-length IgG
# B24: ADI-22776 (antibody, V domains shown)
# VH: EVQLLESGGGLVKPGGSLRLSCAASGFTFSDYYMSWIRQAPGKGLEWVSYISSSGSTIYYADSVKGRFTISRDNAKNSLYLQMNSLRAEDTAVYYCAREIGGSYTGGAFDIWGQGTMVTVSS
# VL: SYELTQPPSVSVAPGQTARITCGGNNIGSKSVHWYQQKPGQAPVLVVYDDSDRPSGIPERFSGSNSGNTATLTISRVEAGDEADYYCQVWDSSSDHVVFGGGTKVTVL
# notes: full-length IgG
# B25: ADI-25542 (antibody, V domains shown)
# VH: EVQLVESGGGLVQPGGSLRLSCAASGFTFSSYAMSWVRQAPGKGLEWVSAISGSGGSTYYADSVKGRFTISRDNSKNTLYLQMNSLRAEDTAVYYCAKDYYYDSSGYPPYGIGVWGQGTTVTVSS
# VL: QTVVTQEPSFSVSPGGTVTLTCGLSSGSVSTSYYPSWYQQTPGQAPRTLIYSTNTRSSGVPDRFSGSILGNKAALTITGAQADDESDYYCVLYMGSGIWVFGGGTKVTVL
# notes: full-length IgG
# Target: T1, RSV postfusion F (postF), subtype A (respiratory syncytial virus subtype A, UniProt P03420 26-513)
# T1 construct: also called Postfusion subtype A; F deltaFP
# Experiment: BLI
row,Binder,binding result
1,B1,no binding
2,B2,no binding
3,B3,no binding
4,B4,no binding
5,B5,no binding
6,B6,no binding
7,B7,no binding
8,B8,no binding
9,B9,no binding
10,B10,no binding
11,B11,no binding
12,B12,no binding
13,B13,no binding
14,B14,no binding
15,B15,no binding
16,B16,no binding
17,B17,no binding
18,B18,no binding
19,B19,no binding
20,B20,no binding
21,B21,no binding
22,B22,no binding
23,B23,no binding
24,B24,no binding
25,B25,no binding
